Tests used:
HeLa Kyoto [1] = assay: solubility change mitosis vs G1/S (difference of NP-40 vs SDS log2 ratios) (log2 ratio difference); higher = more soluble in mitosis
HeLa Kyoto [2] = assay: thermal stability score vs G1/S (z-score of summed log2 fold changes over temperatures); higher = more thermally stable than in G1/S
HeLa Kyoto [3] = assay: melting temperature (median over replicates), in situ; higher = more thermally stable
[4] = cell cycle stage: early G1 (4.5 h after nocodazole release)
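Wherever melting temperature (median over replicates), in situ is given: HeLa Kyoto cells synchronized by double thymidine or nocodazole block, proteins quantified by TMT10plex mass spectrometry, three independent biological replicates.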
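Wherever solubility change mitosis vs G1/S (difference of NP-40 vs SDS log2 ratios) is given: synchronized HeLa Kyoto cells (double thymidine block for G1/S, nocodazole release for mitosis), protein amounts in NP-40 versus SDS lysates quantified by mass spectrometry, three biological replicates.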
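Wherever thermal stability score vs G1/S (z-score of summed log2 fold changes over temperatures) is given: synchronized HeLa Kyoto cells, proteins quantified by TMT10plex mass spectrometry, three biological replicates, mitosis taken 0.5 h after nocodazole release, G1/S directly after double thymidine block.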

Sequence of LDHAL6A (chain, as listed by the source): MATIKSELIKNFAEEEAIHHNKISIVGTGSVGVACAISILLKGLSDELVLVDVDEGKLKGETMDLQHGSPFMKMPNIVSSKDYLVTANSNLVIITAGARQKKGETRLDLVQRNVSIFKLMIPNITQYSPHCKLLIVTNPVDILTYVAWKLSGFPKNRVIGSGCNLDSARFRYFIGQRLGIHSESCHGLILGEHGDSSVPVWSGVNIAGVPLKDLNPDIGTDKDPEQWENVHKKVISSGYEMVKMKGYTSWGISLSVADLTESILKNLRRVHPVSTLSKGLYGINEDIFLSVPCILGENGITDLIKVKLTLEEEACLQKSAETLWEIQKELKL

Substance	solubility change mitosis (log2) (HeLa Kyoto [1])	thermal stability score (HeLa Kyoto [2]; [4])	thermal stability score (HeLa Kyoto [2]; cell cycle stage: mitosis)	melting temperature (HeLa Kyoto [3]; cell cycle stage: G1/S) [°C]	melting temperature (HeLa Kyoto [3]; cell cycle stage: mitosis) [°C]
SMU1	0.423	–	–	–	–
MRPL15	0.041	–	–	–	–
MRPL55	0.249	–	–	–	–
MRPL21	0.00832	–	–	–	–
RPL10	0.638	–	–	–	–
MAFSQVQCLDDNHVNWRSSESKPEFFYSEEQRLALEALVARGRDAFYEVLKRENIRDFLSELELKRILETIEVYDPGSEDPRGTGPSQGPEDNGVGDGEEASGADGVPIEAEPLPSLEYWPQKSDRSIPQLDLGWPDTIAYRGVTRASVYMQPPIDGQAHIKEVVRKMISQAQKVIAVVMDMFTDVDIFKDLLDAGFKRKVAVYIIVDESNVKYFLHMCERACMHLGHLKNLRVRSSGGTEFFTRSATKFKGALAQKFMFVDGDRAVCGSYSFTWSAARTDRNVISVLSGQVVEMFDRQFQELYLMSHSVSLKGIPMEKEPEPEPIVLPSVVPLVPAGTVAKKLVNPKYALVKAKSVDEIAKISSEKQEAKKPLGLKGPALAEHPGELPELLPPIHPGLLHLERANMFEYLPTWVEPDPEPGSDILGYINIIDPNIWNPQPSQMNRIKIRDTSQASAQHQLWKQSQDSRPRPEPCPPPEPSAPQDGVPAENGLPQGDPEPLPPVPKPRTVPVADVLARDSSDIGWVLELPKEEAPQNGTDHRLPRMAGPGHAPLQRQLSVTQDDPESLGVGLPNGLDGVEEEDDDDYVTLSDQDSHSGSSGRGPGPRRPSVASSVSEEYFEVREHSVPLRRRHSEQVANGPTPPPRRQLSAPHITRGTFVGPQGGSPWAQSRGREEADALKRMQAQRSTDKEAQGQQFHHHRVPASGTRDKDGFPGPPRYRSAADSVQSSTRNAGPAMAGPHHWQAKGGQVPRLLPDPGSPRLAQNARPMTDGRATEEHPSPFGIPYSKLSQSKHLKARTGGSQWASSDSKRRAQAPRDRKDP [FAM83G]	–	1.03	0.873	51.3	–
MAACRALKAVLVDLSGTLHIEDAAVPGAQEALKRLRGASVIIRFVTNTTKESKQDLLERLRKLEFDISEDEIFTSLTAARSLLERKQVRPMLLVDDRALPDFKGIQTSDPNAVVMGLAPEHFHYQILNQAFRLLLDGAPLIAIHKARYYKRKDGLALGPGPFVTALEYATDTKATVVGKPEKTFFLEALRGTGCEPEEAVMIGDDCRDDVGGAQDVGMLGILVKTGKYRASDEEKINPPPYLTCESFPHAVDHILQHLL [HDHD2]	–	-2.07	-2.57	57.3	59
MGLEAQRLPGAEEAPVRVALRVRPLLPKELLHGHQSCLQVEPGLGRVTLGRDRHFGFHVVLAEDAGQEAVYQACVQPLLEAFFEGFNATVFAYGQTGSGKTYTMGEASVASLLEDEQGIVPRAMAEAFKLIDENDLLDCLVHVSYLEVYKEEFRDLLEVGTASRDIQLREDERGNVVLCGVKEVDVEGLDEVLSLLEMGNAARHTGATHLNHLSSRSHTVFTVTLEQRGRAPSRLPRPAPGQLLVSKFHFVDLAGSERVLKTGSTGERLKESIQINSSLLALGNVISALGDPQRRGSHIPYRDSKITRILKDSLGGNAKTVMIACVSPSSSDFDETLNTLNYASRAQNIRNRATVNWRPEAERPPEETASGARGPPRHRSETRIIHRGRRAPGPATASAAAAMRLGAECARYRACTDAAYSLLRELQAEPGLPGAAARKVRDWLCAVEGERSALSSASGPDSGIESASVEDQAAQGAGGRKEDEGAQQLLTLQNQVARLEEENRDFLAALEDAMEQYKLQSDRLREQQEEMVELRLRLELVRPGWGGPRLLNGLPPGSFVPRPHTAPLGGAHAHVLGMVPPACLPGDEVGSEQRGEQVTNGREAGAELLTEVNRLGSGSSAASEEEEEEEEPPRRTLHLRRNRISNCSQRAGARPGSLPERKGPELCLEELDAAIPGSRAVGGSKARVQARQVPPATASEWRLAQAQQKIRELAINIRMKEELIGELVRTGKAAQALNRQHSQRIRELEQEAEQVRAELSEGQRQLRELEGKELQDAGERSRLQEFRRRVAAAQSQVQVLKEKKQATERLVSLSAQSEKRLQELERNVQLMRQQQGQLQRRLREETEQKRRLEAEMSKRQHRVKELELKHEQQQKILKIKTEEIAAFQRKRRSGSNGSVVSLEQQQKIEEQKKWLDQEMEKVLQQRRALEELGEELHKREAILAKKEALMQEKTGLESKRLRSSQALNEDIVRVSSRLEHLEKELSEKSGQLRQGSAQSQQQIRGEIDSLRQEKDSLLKQRLEIDGKLRQGSLLSPEEERTLFQLDEAIEALDAAIEYKNEAITCRQRVLRASASLLSQCEMNLMAKLSYLSSSETRALLCKYFDKVVTLREEQHQQQIAFSELEMQLEEQQRLVYWLEVALERQRLEMDRQLTLQQKEHEQNMQLLLQQSRDHLGEGLADSRRQYEARIQALEKELGRYMWINQELKQKLGGVNAVGHSRGGEKRSLCSEGRQAPGNEDELHLAPELLWLSPLTEGAPRTREETRDLVHAPLPLTWKRSSLCGEEQGSPEELRQREAAEPLVGRVLPVGEAGLPWNFGPLSKPRRELRRASPGMIDVRKNPL [KIF7]	–	1.88	2.73	52.4	51.4
MADVINVSVNLEAFSQAISAIQALRSSVSRVFDCLKDGMRNKETLEGREKAFIAHFQDNLHSVNRDLNELERLSNLVGKPSENHPLHNSGLLSLDPVQDKTPLYSQLLQAYKWSNKLQYHAGLASGLLNQQSLKRSANQMGVSAKRRPKAQPTTLVLPPQYVDDVISRIDRMFPEMSIHLSRPNGTSAMLLVTLGKVLKVIVVMRSLFIDRTIVKGYNENVYTEDGKLDIWSKSNYQVFQKVTDHATTALLHYQLPQMPDVVVRSFMTWLRSYIKLFQAPCQRCGKFLQDGLPPTWRDFRTLEAFHDTCRQ [MED27]	–	-0.132	0.247	48.5	–
LDHAL6A	–	-1.33	-1.23	61.6	–
MREIVHIQAGQCGNQIGAKFWEVISDEHGIDPTGSYHGDSDLQLERINVYYNEAAGNKYVPRAILVDLEPGTMDSVRSGPFGQIFRPDNFVFGQSGAGNNWAKGHYTEGAELVDSVLDVVRKESESCDCLQGFQLTHSLGGGTGSGMGTLLISKIREEYPDRIMNTFSVMPSPKVSDTVVEPYNATLSVHQLVENTDETYSIDNEALYDICFRTLKLTTPTYGDLNHLVSATMSGVTTCLRFPGQLNADLRKLAVNMVPFPRLHFFMPGFAPLTSRGSQQYRALTVPELTQQMFDSKNMMAACDPRHGRYLTVAAIFRGRMSMKEVDEQMLNVQNKNSSYFVEWIPNNVKTAVCDIPPRGLKMSATFIGNSTAIQELFKRISEQFTAMFRRKAFLHWYTGEGMDEMEFTEAESNMNDLVSEYQQYQDATADEQGEFEEEEGEDEA [TUBB2A]	–	-0.598	-2.95	56.7	54.9
MREYKLVVLGSGGVGKSALTVQFVQGIFVEKYDPTIEDSYRKQVEVDAQQCMLEILDTAGTEQFTAMRDLYMKNGQGFALVYSITAQSTFNDLQDLREQILRVKDTDDVPMILVGNKCDLEDERVVGKEQGQNLARQWNNCAFLESSAKSKINVNEIFYDLVRQINRKTPVPGKARKKSSCQLL [RAP1B]	–	-0.701	-1.33	58.5	58.5
MELWPCLAAALLLLLLLVQLSRAAEFYAKVALYCALCFTVSAVASLVCLLRHGGRTVENMSIIGWFVRSFKYFYGLRFEVRDPRRLQEARPCVIVSNHQSILDMMGLMEVLPERCVQIAKRELLFLGPVGLIMYLGGVFFINRQRSSTAMTVMADLGERMVRENLKVWIYPEGTRNDNGDLLPFKKGAFYLAVQAQVPIVPVVYSSFSSFYNTKKKFFTSGTVTVQVLEAIPTSGLTAADVPALVDTCHRAMRTTFLHISKTPQENGATAGSGVQPAQ [AGPAT2]	–	-0.0581	0.548	–	52.2
MATKEKLQCLKDFHKDILKPSPGKSPGTRPEDEAEGKPPQREKWSSKIDFVLSVAGGFVGLGNVWRFPYLCYKNGGGAFLIPYFIFLFGSGLPVFFLEIIIGQYTSEGGITCWEKICPLFSGIGYASVVIVSLLNVYYIVILAWATYYLFQSFQKELPWAHCNHSWNTPHCMEDTMRKNKSVWITISSTNFTSPVIEFWERNVLSLSPGIDHPGSLKWDLALCLLLVWLVCFFCIWKGVRSTGKVVYFTATFPFAMLLVLLVRGLTLPGAGAGIKFYLYPDITRLEDPQVWIDAGTQIFFSYAICLGAMTSLGSYNKYKYNSYRDCMLLGCLNSGTSFVSGFAIFSILGFMAQEQGVDIADVAESGPGLAFIAYPKAVTMMPLPTFWSILFFIMLLLLGLDSQFVEVEGQITSLVDLYPSFLRKGYRREIFIAFVCSISYLLGLTMVTEGGMYVFQLFDYYAASGVCLLWVAFFECFVIAWIYGGDNLYDGIEDMIGYRPGPWMKYSWAVITPVLCVGCFIFSLVKYVPLTYNKTYVYPNWAIGLGWSLALSSMLCVPLVIVIRLCQTEGPFLVRVKYLLTPREPNRWAVEREGATPYNSRTVMNGALVKPTHIIVETMM [SLC6A6]	–	-2.77	-2.51	57.6	57.2
MAYHSGYGAHGSKHRARAAPDPPPLFDDTSGGYSSQPGGYPATGADVAFSVNHLLGDPMANVAMAYGSSIASHGKDMVHKELHRFVSVSKLKYFFAVDTAYVAKKLGLLVFPYTHQNWEVQYSRDAPLPPRQDLNAPDLYIPTMAFITYVLLAGMALGIQKRFSPEVLGLCASTALVWVVMEVLALLLGLYLATVRSDLSTFHLLAYSGYKYVGMILSVLTGLLFGSDGYYVALAWTSSALMYFIVRSLRTAALGPDSMGGPVPRQRLQLYLTLGAAAFQPLIIYWLTFHLVR [YIF1A]	–	-0.13	-2.04	57.2	–
MRLVILDNYDLASEWAAKYICNRIIQFKPGQDRYFTLGLPTGSTPLGCYKKLIEYHKNGHLSFKYVKTFNMDEYVGLPRNHPESYHSYMWNNFFKHIDIDPNNAHILDGNAADLQAECDAFENKIKEAGGIDLFVGGIGPDGHIAFNEPGSSLVSRTRLKTLAMDTILANAKYFDGDLSKVPTMALTVGVGTVMDAREVMILITGAHKAFALYKAIEEGVNHMWTVSAFQQHPRTIFVCDEDATLELRVKTVKYFKGLMHVHNKLVDPLFSMKDGN [GNPDA2]	–	-0.549	-0.194	58.1	58.3
MREIVHIQAGQCGNQIGAKFWEVISDEHGIDPSGNYVGDSDLQLERISVYYNEASSHKYVPRAILVDLEPGTMDSVRSGAFGHLFRPDNFIFGQSGAGNNWAKGHYTEGAELVDSVLDVVRKECENCDCLQGFQLTHSLGGGTGSGMGTLLISKVREEYPDRIMNTFSVVPSPKVSDTVVEPYNATLSIHQLVENTDETYCIDNEALYDICFRTLKLATPTYGDLNHLVSATMSGVTTSLRFPGQLNADLRKLAVNMVPFPRLHFFMPGFAPLTARGSQQYRALTVPELTQQMFDAKNMMAACDPRHGRYLTVATVFRGRMSMKEVDEQMLAIQSKNSSYFVEWIPNNVKVAVCDIPPRGLKMSSTFIGNSTAIQELFKRISEQFTAMFRRKAFLHWYTGEGMDEMEFTEAESNMNDLVSEYQQYQDATAEEEGEMYEDDEEESEAQGPK [TUBB3]	–	-0.669	0.329	52.3	54.3
MSLLNCENSCGSSQSESDCCVAMASSCSAVTKDDSVGGTASTGNLSSSFMEEIQGYDVEFDPPLESKYECPICLMALREAVQTPCGHRFCKACIIKSIRDAGHKCPVDNEILLENQLFPDNFAKREILSLMVKCPNEGCLHKMELRHLEDHQAHCEFALMDCPQCQRPFQKFHINIHILKDCPRRQVSCDNCAASMAFEDKEIHDQNCPLANVICEYCNTILIREQMPNHYDLDCPTAPIPCTFSTFGCHEKMQRNHLARHLQENTQSHMRMLAQAVHSLSVIPDSGYISEVRNFQETIHQLEGRLVRQDHQIRELTAKMETQSMYVSELKRTIRTLEDKVAEIEAQQCNGIYIWKIGNFGMHLKCQEEEKPVVIHSPGFYTGKPGYKLCMRLHLQLPTAQRCANYISLFVHTMQGEYDSHLPWPFQGTIRLTILDQSEAPVRQNHEEIMDAKPELLAFQRPTIPRNPKGFGYVTFMHLEALRQRTFIKDDTLLVRCEVSTRFDMGSLRREGFQPRSTDAGV [TRAF6]	–	0.286	-0.125	51.5	51.3
